# Measured values taken from CN110357963A (BEIJING ZHIREN MEIBO BIOTECHNOLOGY CO LTD, dated 2019).
# Where a chain is given by its changes, count along the chain named.
# T1: 小鼠ST2 (mST2-his) (mouse (mus musculus), UniProt P14719 27-332)
# T1 construct: not shown: His tag at C-terminus
# T1 sequence: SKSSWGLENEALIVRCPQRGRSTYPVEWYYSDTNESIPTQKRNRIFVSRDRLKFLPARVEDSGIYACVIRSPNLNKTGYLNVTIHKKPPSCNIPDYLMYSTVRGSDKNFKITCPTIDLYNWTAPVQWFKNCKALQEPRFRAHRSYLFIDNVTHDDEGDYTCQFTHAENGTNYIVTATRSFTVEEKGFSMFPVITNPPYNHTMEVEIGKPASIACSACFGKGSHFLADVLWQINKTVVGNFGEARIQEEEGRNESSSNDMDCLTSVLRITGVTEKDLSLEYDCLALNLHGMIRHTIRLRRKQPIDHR
# T2: ST2L (IL1RL1) on cells (human, UniProt Q01638 19-556)
# T2 sequence (looked up): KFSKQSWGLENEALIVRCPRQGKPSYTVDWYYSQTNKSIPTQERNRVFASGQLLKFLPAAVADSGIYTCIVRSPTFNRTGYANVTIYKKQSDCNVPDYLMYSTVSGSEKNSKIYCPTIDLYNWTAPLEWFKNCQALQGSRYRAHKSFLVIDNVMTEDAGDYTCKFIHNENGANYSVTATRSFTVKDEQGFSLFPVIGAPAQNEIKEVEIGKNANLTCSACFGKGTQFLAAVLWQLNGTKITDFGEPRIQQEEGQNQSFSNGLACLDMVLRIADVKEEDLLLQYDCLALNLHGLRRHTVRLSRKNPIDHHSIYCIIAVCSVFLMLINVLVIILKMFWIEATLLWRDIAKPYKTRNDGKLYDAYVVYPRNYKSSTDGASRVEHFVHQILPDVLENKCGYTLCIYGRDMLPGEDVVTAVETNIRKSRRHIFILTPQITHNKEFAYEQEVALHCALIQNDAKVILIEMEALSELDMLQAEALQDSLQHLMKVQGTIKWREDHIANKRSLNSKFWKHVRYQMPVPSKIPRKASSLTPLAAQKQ
# T3: 重组人ST2-his (人ST2胞外区, C端His标签) (human (homo sapiens), UniProt Q01638 19-328)
# T3 construct: Expressed in HEK293 cells; also called hST2-his; hST2-His; not shown: His tag at C-terminus
# T3 sequence: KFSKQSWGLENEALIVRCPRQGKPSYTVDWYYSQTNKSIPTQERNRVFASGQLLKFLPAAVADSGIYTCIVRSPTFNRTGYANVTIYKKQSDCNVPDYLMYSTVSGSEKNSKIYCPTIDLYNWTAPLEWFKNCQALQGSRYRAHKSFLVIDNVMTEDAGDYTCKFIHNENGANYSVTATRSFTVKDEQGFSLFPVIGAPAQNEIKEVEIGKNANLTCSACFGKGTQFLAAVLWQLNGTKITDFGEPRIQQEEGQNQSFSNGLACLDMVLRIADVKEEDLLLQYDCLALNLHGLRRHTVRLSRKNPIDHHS
# T4: 猕猴ST2 (mmST2-his) (rhesus macaque (Macaca mulatta), UniProt Q01638 19-328 (human entry))
# T4 construct: not shown: His tag at C-terminus
# T4 chain: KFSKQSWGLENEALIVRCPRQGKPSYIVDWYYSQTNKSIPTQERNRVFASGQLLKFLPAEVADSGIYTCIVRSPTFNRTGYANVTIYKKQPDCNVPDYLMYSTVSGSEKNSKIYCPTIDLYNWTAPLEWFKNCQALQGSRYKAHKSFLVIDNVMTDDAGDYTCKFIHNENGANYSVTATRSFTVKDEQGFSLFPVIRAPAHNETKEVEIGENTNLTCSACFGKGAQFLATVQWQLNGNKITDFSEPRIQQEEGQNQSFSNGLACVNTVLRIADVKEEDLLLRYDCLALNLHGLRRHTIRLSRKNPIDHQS
# B1: H5G10+L2G2 (antibody, IgG4, V domains shown)
# VH: EVQLVQSGAEVKKPGASVKVSCKVSGYTLTELSIHWVRQAPGKGLEWMGGFGPEDGEAIYAQKVQGRVILSEDTATDTAYMELSSLRSEDTAVYYCTNEDSGGLFDYWGQGTLVTVSS
# VL: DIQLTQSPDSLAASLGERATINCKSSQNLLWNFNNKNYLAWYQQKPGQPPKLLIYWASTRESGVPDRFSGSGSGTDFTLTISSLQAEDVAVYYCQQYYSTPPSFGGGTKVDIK
# notes: Full antibody, IgG4 heavy constant region
# B2: MSTT1041A-IgG4 (antibody, V domains shown)
# VH: EVQLVQSGAEVKKPGESLKISCKGSGYSFTNYWIGWVRQMPGKGLEWMGIIYPGNSDTRFSPSFQGQVTISADKSITTAYLQWSSLKASDTAMYYCARHGTSSDYYGLDVWGQGTTVTVSS
# VL: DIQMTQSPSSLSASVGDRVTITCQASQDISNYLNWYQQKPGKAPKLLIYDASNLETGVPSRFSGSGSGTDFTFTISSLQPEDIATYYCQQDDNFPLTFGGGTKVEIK
# notes: Positive control antibody made after US9382318B2/US9090694B2; also called 抗人ST2对照抗体MSTT1041A
# B3: GSK3772847-IgG4 (antibody, V domains shown)
# VH: EVQLLESGGGLVQPGGSLRLSCAASGFTFSIYDMIWVRQAPGKGLEWVSSIRGEGGGTYYADSVKGRFTISRDNSKNTLYLQMNSLRAEDTAVYYCARDPWSTEGSFFVLDYWGQGTLVTVSS
# VL: EIVLTQSPATLSLSPGERATLSCRASQSVDDDLAWYQQKPGQAPRLLIYDASNRATGIPARFSGSGSGTDFTLTISSLEPEDFAVYYCQQYITAPLTFGQGTKVEIK
# notes: Positive control antibody made after US9382318B2/US9090694B2; also called 抗人ST2对照抗体GSK3772847
# B4: H5G3+L1D1 (antibody, IgG4, V domains shown)
# VH: QVQLVQSGAEVKKPGASVKVSCKVFGYTLTELSMHWVRQAPGKGLEWMGSFDRGDGKTIYAQKFLGRVTMTEDTSTDTAYMELSSLRSEDTAVYYCTNEDSSGLFDFWGQGTLVTVSS
# VL: DIQLTQSPDSLAVSLGERATINCKSSQSLLYSFNNKNYLAWYQQKPGQPPNLLIYWASTRESGVPDRFSASGSGTDFTLTISSLQAEDVAVYYCQQYYGVPQTFGQGTKVEIK
# notes: IgG4 heavy constant region
# B5: S1A4-IgG4 (antibody, V domains shown)
# VH: B1 VH with E1Q, A58T, V64F, I69T, L70M, S71T, A75S, T97I, Y107F, L113T
# VL: not shown
# notes: Full antibody; also called 抗人ST2单克隆抗体S1A4
# B6: H5G3+L2G2 (antibody, IgG4, V domains shown)
# VH: B4 VH
# VL: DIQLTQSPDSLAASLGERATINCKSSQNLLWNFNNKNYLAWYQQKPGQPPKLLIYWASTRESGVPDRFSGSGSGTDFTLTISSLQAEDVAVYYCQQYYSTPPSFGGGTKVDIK
# notes: as for B1
# B7: H5E10+L2G2 (antibody, IgG4, V domains shown)
# VH: B1 VH with G52D, A58T, V64F, V68I, I69T, S71T, A75S, G102S
# VL: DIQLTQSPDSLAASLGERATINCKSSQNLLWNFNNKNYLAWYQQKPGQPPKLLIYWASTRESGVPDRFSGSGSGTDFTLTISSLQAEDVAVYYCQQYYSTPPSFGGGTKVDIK
# notes: as for B1
# B8: H6D3+L2G2 (antibody, IgG4, V domains shown)
# VH: QVQLVQSGAEVKKPGASVKVSCKVSGHTLTELSIHWVRQTPGKGLVWLGGFESEDGEAIYAQNFQGRVIMTEDTFTDTAYMELSSLRSEDTAVYYCTTEDSSGLIDYWGQGTLVTVSS
# VL: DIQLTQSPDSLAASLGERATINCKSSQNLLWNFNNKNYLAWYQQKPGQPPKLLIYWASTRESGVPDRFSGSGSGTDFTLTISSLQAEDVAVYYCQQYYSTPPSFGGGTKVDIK
# notes: as for B1
# B9: H6D6+L2G2 (antibody, IgG4, V domains shown)
# VH: QMQLVQSGAEVKKPGSSVKVSCKASGGTFSSYAISWVRQAPGKGLEWMGGFDPEDGETIYAQKFQGRVTMTEDTSTDTAYMELSSLRSEDTAVYYCTTEDSSGLLDFWGQGTLVTVSS
# VL: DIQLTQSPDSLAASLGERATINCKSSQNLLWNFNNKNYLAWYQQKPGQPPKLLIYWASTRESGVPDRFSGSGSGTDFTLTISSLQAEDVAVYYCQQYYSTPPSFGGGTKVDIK
# notes: as for B1
# B10: S1A4VH+L2G2 (antibody, V domains shown)
# VH: B1 VH with E1Q, A58T, V64F, I69T, L70M, S71T, A75S, T97I, Y107F, L113T
# VL: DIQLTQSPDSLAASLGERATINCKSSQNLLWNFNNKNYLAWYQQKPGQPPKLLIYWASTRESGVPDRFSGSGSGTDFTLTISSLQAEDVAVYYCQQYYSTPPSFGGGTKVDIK
# notes: Full antibody, heavy chain constant region IgG4 subtype
# B11: S1A4VH+L1D1 (antibody, V domains shown)
# VH: B1 VH with E1Q, A58T, V64F, I69T, L70M, S71T, A75S, T97I, Y107F, L113T
# VL: B4 VL
# notes: as for B10
# B12: 全人源单链抗体S1A4 (scFv)
# scFv: QVQLVQSGAEVKKPGASVKVSCKVSGYTLTELSIHWVRQAPGKGLEWMGGFGPEDGETIYAQKFQGRVTMTEDTSTDTAYMELSSLRSEDTAVYYCINEDSGGLFDFWGQGTTVTVSSGGGGSGGGGSGGGGSDIQLTQSPDSLAVSLGERATINCKSSQSVLYSSNNKNYLAWYQQKPGQPPKLLIYWASTRESGVPDRFSGSGSGTDFTLTISSLQAEDVAVYYCQQYYSTPWTFGQGTKLEIK
# notes: also called S1A4 scFv
# Molecular target: T1, 小鼠ST2 (mST2-his)
# Assay: ELISA, mST2-his coated at 1 µg/mL, HRP anti-human IgG detection
row,Binder,binding result
1,B1,no binding

# Molecular target: T2, ST2L (IL1RL1) on cells
# Assay: cell-based or functional assay
row,Binder,IC50 of inhibition of IFNγ secretion by PBMC co-stimulated with IL-33 and IL-12 [pM]
1,B1,17.5
2,B2,37
3,B3,15.7
4,B4,38

# Molecular target: T3, 重组人ST2-his (人ST2胞外区, C端His标签)
# Assay: competition ELISA, hST2-his coated, competitor hIL33-mFc 0.5 µg/mL, antibody titrated
row,Binder,IC50 [pM]
1,B5,4150
2,B2,3790
3,B3,5520

# Molecular target: T4, 猕猴ST2 (mmST2-his)
# Assay: ELISA, mmST2-his coated 1 µg/mL, HRP anti-human IgG
row,Binder,binding result
1,B5,binds
2,B6,binds
3,B7,binds
4,B4,binds
5,B8,binds
6,B9,binds

# Molecular target: T3, 重组人ST2-his (人ST2胞外区, C端His标签)
# Assay: SPR Biacore X100 as in Example 3.4, antibody captured, hST2-his analyte
row,Binder,Kd [pM]
1,B10,79.4
2,B5,111
3,B11,152

# Molecular target: T3, 重组人ST2-his (人ST2胞外区, C端His标签)
# Assay: SPR Biacore X100, antibody captured by anti-human Fc, hST2-his analyte, 25 °C, 1:1 model
row,Binder,Kd [pM]
1,B5,135
2,B2,240
3,B3,109

# Molecular target: T1, 小鼠ST2 (mST2-his)
# Assay: ELISA, mST2-his coated 1 µg/mL, HRP anti-human IgG
row,Binder,binding result
1,B5,binds
2,B6,binds
3,B7,binds
4,B4,binds
5,B8,binds
6,B9,binds

# Molecular target: T3, 重组人ST2-his (人ST2胞外区, C端His标签)
# Assay: SPR Biacore X100 as in Example 3.4, antibody captured, hST2-his analyte
# Remark: another data set of the same source
row,Binder,Kd [pM]
1,B1,85.2
2,B5,139
3,B6,115
4,B7,709
5,B8,37.3
6,B9,695

# Molecular target: T3, 重组人ST2-his (人ST2胞外区, C端His标签)
# Assay: phage display solid-phase panning on recombinant human ST2-his
row,Binder,binding result
1,B12,binds
